# Results as given in the supplement of paper PMC9732359.
# ± gives the uncertainty stated by the source.
# Assay: protein stability index of a GFP-peptide fusion (yeast GPS) (PSI 1-4); higher = more stable; sorted into four equal gates, so the index is relative within each strain
# Conditions: doa10∆
# In short: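 For each peptide, the protein stability index sums the read frequency in every gate after multiplying it by the gate number. Read frequencies came from plasmids that were PCR-amplified from each gate and Illumina-sequenced, with reads assigned to strains by barcodes. The gates were four equal bins of GFP/Cherry fluorescence ratio applied to mid-log yeast in leucine-free medium carrying a pooled library of tiled 17-residue yeast protein peptides fused downstream of GFP on a Cherry-expressing plasmid.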
row,Sequence,protein stability index
1,TPNTNSNSTPNANQQFL [SWI1],3.11 ± 0.054

# Same assay, conditions: pdr5∆
row,Sequence,protein stability index
1,SVLQLIVSEDHIILDTI [MED1],2.7 ± 0.19
2,SVMMQDSPASNEDDLTV [RPO31],3.08 ± 0.083
3,SVQNLDQLLTDLIETSF [NUT1],2.64 ± 0.1
4,SVRGAIVGPDLAVLALV [RPS6A],1.46 ± 0.06
5,SVRKFLEIALFKYRKAR [RPO31],1.18 ± 0.097
6,SVRLFSFLDPLNYGNIC [YJL039C/NUP192],2.21 ± 0.069
7,SVSSPIELNFDAVKDFK [QCR2],1.67 ± 0.065
8,SVTRAGNIISSDKTIVP [SIN4],2.88 ± 0.099
9,SWSNGKITSPIRSVALN [RRP42],2.62 ± 0.089
10,SWSSSAAVIMRCKIYFF [PCI8],1.71 ± 0.058
11,SYANHLEESDVEDTLHV [YOR098C/NUP1],2.4 ± 0.065
12,SYHLWPSFTDEQWITIE [PRP8],2.66 ± 0.061
13,SYLISHKDSFYDRATLT [RPO31],2.6 ± 0.067
14,SYLSETLISRISSLFTI [YML103C/NUP188],1.89 ± 0.064
15,SYSGYDIEDALVLNKSS [RET1],2.63 ± 0.052
16,SYSPTSPSYSPTSPAYS [RPO21],3.05 ± 0.063
17,SYTAFSRLTLLLRALKT [PRP8],1.19 ± 0.037
18,SYWQKSYFKNSVIVKFH [LIN1],2.62 ± 0.045
19,TAAETFKLFNKYRPETA [RPL8A],3 ± 0.059
20,TAAQVANVELTPSNIRS [RPC34],2.82 ± 0.071
21,TAELIKELKEKEAAESP [PUP2],3.3 ± 0.094
22,TAKKDMSSTTPKLESVK [SNF12],3.35 ± 0.05
23,TAKRKSRKRKPKSASNT [IRR1],3.21 ± 0.13
24,TAMKKVEDGNILVFQVS [RPL25],2.48 ± 0.056
25,TAQEINFKMLVLLATWN [IRR1],2.04 ± 0.047
26,TASDQLFGMCESLYEPN [PUP3],2.12 ± 0.058
27,TATTGKRKPAKSSSNRS [RPN4],2.96 ± 0.07

row,Sequence,protein stability index
1,TAVNGIDTDLFGAPNNP [YGL172W/NUP49],3.23 ± 0.08
2,TAVVNNAAPANVTGGKA [SWI1],1.98 ± 0.04
3,TCGSKGSTLNVSQMVAV [RPO31],2.89 ± 0.097
4,TCSCCKKTVAGGAYTVS [RPL43A],2.1 ± 0.11
5,TCSYVEEAGSPLVYRHE [RPB9],2.92 ± 0.15
6,TDLENSSLFQEKLLETN [ECM29],2.46 ± 0.079
7,TDLRLSTNGLGMCQLYF [SNU114],3.52 ± 0.13
8,TDNVSMYPSPTGVMIGI [PRP8],2.41 ± 0.063
9,TEAAFTKLDQVWGSETV [RPL4A],1.87 ± 0.11
10,TEKDDNKTNNEDLFDDY [NUT1],3.25 ± 0.053
11,TELVDGRENFVYANNPE [SIR3],3.33 ± 0.11
12,TERVVEIGPSPTLAGMA [FAS2],2.599 ± 0.017
13,TESLRVENSVLIEKVDD [YIL149C/MLP2],2.98 ± 0.22
14,TESVPEPKLFRMRIFAS [RPL20A],3.02 ± 0.18
15,TETEVEREQPQENKNID [SRB4],3.41 ± 0.091
16,TFAKSKNYSRPSTAIHT [SIR4],1.79 ± 0.066
17,TFLLNNKNIDIGLLNKS [RPN2],3.11 ± 0.27
18,TFLSEWGMEPLEDYVPH [RPB2],3.71 ± 0.23
19,TFNNQDKGLLPYAIMET [RPO31],2.46 ± 0.085
20,TFTFTAHMGVLLVLLQD [SWP82],1.32 ± 0.044
21,TGAGAFGTGQSTFGFNN [YJL041W/NSP1],2.57 ± 0.064
22,TGEFDFEAAVKMSDGFN [RPT4],3.33 ± 0.14
23,TGHPKGAAGAWMMNGAL [FAS2],1.5 ± 0.052
24,TGKTLLAKAVAATIGAN [RPT4],1.75 ± 0.084
25,TGKTLLARACAAQTNAT [RPT5],2.92 ± 0.089
26,TGKYGVRYGSSLRRQVK [RPL43A],3.23 ± 0.066
27,TGMSSMSPFLRKVVKPS [SRB4],2.76 ± 0.088

row,Sequence,protein stability index
1,TGSLMGGNSTQNTSNMN [YGR119C/NUP57],3.24 ± 0.064
2,TGYDLSNSVFSPDGRNF [PRE10],2.88 ± 0.089
3,THEDLPKEVDGLEVGPV [IRR1],3.35 ± 0.11
4,THPKDTFYITREKYNMK [ARP9],3.09 ± 0.083
5,TIAKQVLNGQKIVVVRA [RPL16B],2.9 ± 0.13
6,TIFKYLTDKDAFETHYR [CDC53],3.12 ± 0.086
7,TIISPHKDIPEEDFYTV [DSN1],3.23 ± 0.15
8,TIKILPENTAMFNPLHE [YMR129W/POM152],2.36 ± 0.053
9,TIRLWECGTGTTIHTFN [RPN14],2.4 ± 0.11
10,TIRYLMQKQHEMKTQAA [SNF6],2.98 ± 0.051
11,TISVPQIRDVMERFSVL [RRP6],2.7 ± 0.097
12,TITKRNGAFQNSSNLSY [RRP4],3.02 ± 0.057
13,TKDIFPLQNIHVRKVKL [RPS1A],2.81 ± 0.097
14,TKFKGGKRQLMKAVGEY [SEC65],3.11 ± 0.11
15,TKISTLAVKVHGGSRYA [QCR2],1.64 ± 0.21
16,TKLNLHCVIEDDESEQI [RRI1],3.16 ± 0.17
17,TKLTTCKRELAFVKQKN [YIL149C/MLP2],1.81 ± 0.086
18,TKNDAGSKQILKTEAAN [BRR2],2.95 ± 0.054
19,TKPAIRRLARRGGVKRI [HHF1],3.12 ± 0.16
20,TKPSETPATIVKKPTFT [YOR098C/NUP1],3.08 ± 0.057
21,TKSKNKTLIGLQGIVIW [POP4],2.76 ± 0.051
22,TKSSKEFFNTLRKSRET [RRI2],3.42 ± 0.13
23,TKVNNQLIKVAVHNGDR [RPL9B],1.52 ± 0.06
24,TLASLIRYNSVEIQEVP [RPC82],2.59 ± 0.051
25,TLDKKDSIPLRITNSFY [RPN9],2.81 ± 0.11
26,TLDVEAFKSVVSTETFE [RPL27A],2.74 ± 0.051
27,TLEDALRRIITDLNQDS [GRR1],1.86 ± 0.063

row,Sequence,protein stability index
1,TLEDKFLLLAVNKYGLR [ISW2],2.15 ± 0.058
2,TLESLENLVVADLESFA [COR1],2.67 ± 0.063
3,TLGNLIRAELLNDRKVL [RPB11],2.74 ± 0.25
4,TLGNQMLSAHNIIESIA [YJR042W/NUP85],2.58 ± 0.073
5,TLLSPKDNGMLIIDGQI [RPO21],2.29 ± 0.078
6,TLNPDLFLYKELVKAHL [RPC82],2.87 ± 0.074
7,TLPSVGHTLINNYKDLL [RPP0],3.34 ± 0.21
8,TLRKELEQIQVQLKDAN [YIL149C/MLP2],2.96 ± 0.093
9,TLSHLRRTNTPIGRDGK [RPB2],2.26 ± 0.038
10,TLVEIFLERKCVHMVYE [SSN3],1.7 ± 0.071
11,TLVSTDNYFNLQLNEAE [SMX3],2.91 ± 0.059
12,TMGGNAELELVDSLDPF [SMC4],3.17 ± 0.086
13,TMGMRALLKLSVKLKQK [DIS3],1.59 ± 0.063
14,TMQPPYIQERLKSLNDI [MED11],2.86 ± 0.12
15,TNFEILNEMLNTRKNMS [DIS3],3.07 ± 0.091
16,TNFSPTPANNGENAAEK [SNF2],2.77 ± 0.072
17,TNHSAAASTPTTTATPH [PGD1],3.026 ± 0.029
18,TNILISPLNTTTKILGD [YML103C/NUP188],2.42 ± 0.05
19,TNNVLRKLGLLGDKEDE [MTW1],2.35 ± 0.054
20,TNPSSIFGGAGGVPTTS [YOR098C/NUP1],2.36 ± 0.076
21,TNWIIYPLWVMAKQLIR [CSN12],1.2 ± 0.13
22,TPAELVGKFLGYVSSLV [FAS1],2.04 ± 0.085
23,TPEYAAEKVKVRDELRK [UBP6],1.61 ± 0.083
24,TPIIFIGTGEHIHDLEK [SRP54],2.42 ± 0.063
